{"source": "paper PMC4070910", "about": "“Cathepsin S Signals via PAR2 and Generates a Novel Tethered Ligand Receptor Agonist” (PLoS ONE, 2014)", "molecules": {"B1": {"name": "cathepsin S: Recombinant human cathepsin S, cysteine protease, expressed in E.coli, refolded and activated (protein, UniProt P25774 115-331, looked up)", "Cathepsin S": "LPDSVDWREKGCVTEVKYQGSCGACWAFSAVGALEAQLKLKTGKLVSLSAQNLVDCSTEKYGNKGCNGGFMTTAFQYIIDNKGIDSDASYPYKAMDQKCQYDSKYRAATCSKYTELPYGREDVLKEAVANKGPVSVGVDARHPSFFLYRSGVYYEPSCTQNVNHGVLVVGYGDLNGKEYWLVKNSWGHNFGEEGYIRMARNKGNHCGIASFPSYPEI"}}, "system": "PAR2M1 (leucine38 to alanine)", "test": "Calcium imaging in HeLa cells transfected with PAR2M1", "type": "cell-based, human", "details": "cathepsin S 2 µM, KVDGTS 100 µM", "description": "Human PAR2 cDNA was cloned as an Xho I-Hind III fragment (1206 bp) into pcDNA3.1(−). 10 µg of DNA were diluted into 0.5 ml of DMEM and mixed with 0.5 ml of DMEM containing 10 µl of Lipofectamine 2000 transfection reagent and incubated at room temperature for 20 minutes. HeLa cells were grown to confluence, trypsinized and 1×10^6 cells were pelleted in a 15 ml tube by centrifugation at 1000 rpm for 5 minutes. The DMEM-Lipofectamine 2000-DNA mixture (1 ml) was added to the cell pellet, resuspended gently and incubated at room temperature for 20 minutes. Four ml of complete DMEM with 10% FBS were added to the tube, mixed by inverting the tube several times, plated into a 96-well glass bottom plate at 20,000 cells/well, and placed in a 37°C CO2 incubator. HeLa cells transfected with vector alone or salmon sperm DNA (shown in the figures) were plated as a control. The medium was aspirated two days after transfection. Fura-2 was used as a ratiometric calcium-sensitive indicator as follows. […]\nImaging was performed using a Zeiss Axiovert 200 M microscope platform equipped with a flipping filter wheel for ratiometric imaging. […] The software later analyzed all images taken during each excitation period. Typically, ratiometric changes were measured in 10–20 cells in each image. An average of the fluorescence of the cells in each image was calculated and plotted against time in seconds. […]", "note": "Entries after “also recorded” stand apart in the source; their conditions may differ."}
{"molecule": "B1", "values": [{"measurement": "calcium response on PAR2M1 (in words)", "value": "induced normal calcium responses; also recorded: able to stimulate native PAR2 and PAR2M1"}]}
